Source: publication PMC10988552

Target: T1, granulocyte colony stimulating factor (G-CSF) (human), P09919
T1 chain: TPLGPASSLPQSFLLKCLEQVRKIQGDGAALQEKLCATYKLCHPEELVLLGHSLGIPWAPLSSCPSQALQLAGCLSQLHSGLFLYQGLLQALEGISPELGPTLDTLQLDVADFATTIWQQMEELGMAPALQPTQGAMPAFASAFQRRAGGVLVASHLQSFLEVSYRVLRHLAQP
Experiment: SEC; analytical SEC-HPLC, TSKgel G3000SWXL, mobile phase 0.1 M phosphate pH 2.5, 1 mL/min; 0.3 mg/mL G-CSF in 50 mM citric acid pH 4.25 with or without 1% (w/v) sucrose, mannitol or phenylalanine, before lyophilization; monomer 19.9 min, dimer 18.4 min
Settings: remark: other sources report otherwise

B1: granulocyte colony stimulating factor (G-CSF), P09919-2 31-204 (natural protein)
chain: TPLGPASSLPQSFLLKCLEQVRKIQGDGAALQEKLCATYKLCHPEELVLLGHSLGIPWAPLSSCPSQALQLAGCLSQLHSGLFLYQGLLQALEGISPELGPTLDTLQLDVADFATTIWQQMEELGMAPALQPTQGAMPAFASAFQRRAGGVLVASHLQSFLEVSYRVLRHLAQP
B1 gave a percent dimer of 16% and a stoichiometry N of 2.
